Series [1] has as its target DENV3 NS5 wild type (Dengue virus serotype 3) (UniProt Q5UB51). The series is described as follows: fluorescence titration. The note with it: all adenosines are 1,N6-ethenoadenosine; Fluorescence: 50 mM Tris-HCl pH 7.5, 100 mM NaCl, 1 mM MgCl2, 1 mM DTT, 10% glycerol; EMSA: 20 mM Tris pH 7.4, 150 mM NaCl, 2 mM MgCl2, 5% glycerol, room ….
The target is the same in series [2]. The series is described as follows: fluorescence competition. The settings on record: Fluorescence: 50 mM Tris-HCl pH 7.5, 100 mM NaCl, 1 mM MgCl2, 1 mM DTT, 10% glycerol; EMSA: 20 mM Tris pH 7.4, 150 mM NaCl, 2 mM MgCl2, 5% glycerol, room ….

Sequence of DENV3 NS5 wild type (Dengue virus serotype 3) (Q5UB51 2491-3390): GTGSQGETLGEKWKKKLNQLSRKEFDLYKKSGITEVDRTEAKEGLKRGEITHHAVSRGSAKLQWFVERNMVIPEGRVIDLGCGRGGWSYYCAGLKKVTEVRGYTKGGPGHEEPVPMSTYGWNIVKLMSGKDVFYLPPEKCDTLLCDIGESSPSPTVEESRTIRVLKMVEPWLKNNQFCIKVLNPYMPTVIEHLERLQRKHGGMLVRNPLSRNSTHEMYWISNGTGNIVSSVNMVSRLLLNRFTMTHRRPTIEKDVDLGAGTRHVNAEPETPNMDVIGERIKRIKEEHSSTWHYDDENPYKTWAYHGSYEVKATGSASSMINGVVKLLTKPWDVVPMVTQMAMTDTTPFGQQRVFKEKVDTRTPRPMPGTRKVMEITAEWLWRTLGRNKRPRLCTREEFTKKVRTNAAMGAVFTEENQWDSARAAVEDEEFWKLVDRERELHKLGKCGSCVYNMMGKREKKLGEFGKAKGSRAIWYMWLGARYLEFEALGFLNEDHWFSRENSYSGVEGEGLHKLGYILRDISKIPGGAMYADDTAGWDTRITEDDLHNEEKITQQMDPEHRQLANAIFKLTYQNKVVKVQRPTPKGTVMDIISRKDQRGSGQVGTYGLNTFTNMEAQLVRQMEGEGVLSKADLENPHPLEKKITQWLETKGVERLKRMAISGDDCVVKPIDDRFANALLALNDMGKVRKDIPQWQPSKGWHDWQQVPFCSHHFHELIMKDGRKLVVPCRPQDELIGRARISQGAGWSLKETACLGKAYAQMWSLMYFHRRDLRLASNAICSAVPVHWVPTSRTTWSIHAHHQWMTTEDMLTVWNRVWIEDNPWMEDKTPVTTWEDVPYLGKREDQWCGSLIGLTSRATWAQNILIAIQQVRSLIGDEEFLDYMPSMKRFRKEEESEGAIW

AAAAAAAAAAAAAAAAAAAA [εA(pεA)19] gave a Ka in series [1] of 2.1e+06 M⁻¹.

As for tRNA-SLADENV, in series [2], the Ka came to 4.8e+06 M⁻¹.
